Results published in patent publication US20250387497A1, “MULTIVALENT MULTISPECIFIC CONJUGATES AND RELATED COMPOSITIONS AND METHODS OF USE” (Purdue Research Foundation, priority 2022, published 2025).
Values joined by “and” are separate entries in the source; they are usually repeats but may differ in a detail not shown here. Equal entries are not always repeated.

B1: peptide "H", binding motif for Her2, … (peptide)
peptide: FCGDGFYACYMDV
B2: peptide "E", binding motif for EGFR, … (peptide)
peptide: YHWYGYTPQNVI

Key:
[1] = biological target: Her2 (human epidermal growth factor receptor 2); assay: binding affinity, method not stated
[2] = biological target: epidermal growth factor receptor (EGFR); assay: binding affinity, method not stated

| Binder | Kd [1] | Kd [2] [nM] |
| --- | --- | --- |
| B1 | < 500 nM and 300 nM | – |
| B2 | – | 459000 |
